We go through one protein from article PMC6536115.

Substrate in the data set: C[C@H](O)C(=O)O
As to the kind of experiment: cells, lysate or membranes. The note with it: proton.

B1: Monocarboxylate transporter 1 (MCT1) (Mus musculus) (protein)
chain: MPPAIGGPVGYTPPDGGWGWAVLVGAFISIGFSYAFPKSITVFFKEIEVIFSATTSEVSWISSIMLAVMYAGGPISSILVNKYGSRPVMIAGGCLSGCGLIAASFCNTVQELYLCIGVIGGLGLAFNLNPALTMIGKYFYKKRPLANGLAMAGSPVFLSTLAPLNQAFFDIFDWRGSFLILGGLLLNCCVAGSLMRPIGPEQVKLEKLKSKESLQEAGKSDANTDLIGGSPKGEKLSVFQTINKFLDLSLFTHRGFLLYLSGNVVMFFGLFTPLVFLSSYGKSKDFSSEKSAFLLSILAFVDMVARPSMGLAANTKWIRPRIQYFFAASVVANGVCHLLAPLSTTYVGFCVYAGVFGFAFGWLSSVLFETLMDLIGPQRFSSAVGLVTIVECCPVLLGPPLLGRLNDMYGDYKYTYWACGVILIIAGIYLFIGMGINYRLLAKEQKAEEKQKREGKEDEASTDVDEKPKETMKAAQSPQQHSSGDPTEEESPV
Consider B1, for which the Km came to 3.88 ± 0.86 mM and the Vmax worked out at 0.414 µmol/min/mg.

In general, Km refers to the concentration of substrate that gives half-maximal velocity. The term Vmax denotes the top rate of the reaction or transport when substrate is in excess.
